Source: the nanobody polyreactivity screen of Harvey et al. (2022)

Experiment: yeast display, Sf9 membrane polyspecificity reagent, FACS + sequencing; frameworks hold sequencing errors
In short: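 In a synthetic yeast display library (Saccharomyces cerevisiae BJ5465), nanobody expression was induced with galactose for 36–48 hours. FACS gates were set low and high (top ~1%) using anti-HA fluorescence for expression and streptavidin fluorescence for binding of the Sf9 membrane reagent. Each polyreactivity label is drawn from the gate of origin.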

Row | Sequence | polyreactivity (PSR sort gate)
1 | QGQLVESGGGLVQAGGSLRLSCAASGRIFYIYFMGWYRQAPGKEREFVAAISQSGGSTYYADSVKGRFTISRDNAKNTVYLQMNSLKPEDTAVYYCAADRINYQHGYGYWGHGTQVTVSS | low polyreactivity
2 | QVQLLESGVGLVQAGGILRLSCAASGITFSRYTMGWYRQAPGKERELVAANSSAGNTYYADSVNGRFTISRDNAKNTVYLQMNSLKPEDTAVYYCAREYTYYPRWVGYDAYGEDYWGQGTQVTVSS | low polyreactivity
3 | QVQLVESGGCLVQAGGSLRLSCAASGRIFGSYAMGWYRHPPGKERELVAAISGSGGRTYYADSVKGRFTISRDNAKNTVYLQMNSLKPEDTAVYYCAADSQSFGYGYWGQGTQVTVSS | high polyreactivity
4 | QVQLVESGGGLVQAVGSLRLSCAASGRIFGPNAMGWYRQAPGKERELVAAITGSGGSTYADSVKGRFTISRDNAKNTVYLQMNSLKPEDTAVYYCAKKTWYSYDWGQGTQVTVSS | high polyreactivity
5 | QVQLVESGGGLVQAGGSLRLSCAASGSIFYSNTMGWYRQAPGKERELVAAISSSSGRTYYADSVKGRFTISRDNAKNTGFLQMNSLKPEDTAVYYCARRYGWGQGTQVTVSS | high polyreactivity
6 | QLQLVESGVGLVQAGGSLRLSCAASGSILPVYPMGWYRQAPGKERELVAAISVSGGSTSYADSVKGRFTISRDNAKNTVYLQMNSLKPEDTAVYYCAARYRYSYGYWGQGSQVTVSS | high polyreactivity
7 | QVQLVESGGGLVQAGGSLRLSCAASGRIFYYYAMGWYRPAPGKERELVAAITSGGRTYYADSVKGRFTISRDNAKNTVYLQMNSLKPEDTAVYYCAAERTYTYLGPGYEYWGQGTQVTVSS | low polyreactivity
8 | QVQLVESGGGLVQAGGSLRLSCAASGLIFFQNAMGWYRQAPGKERELVAAITWSGGRTYYADSVKGRFTISRDNAKNTVYLQMKSLKPEDTEVYYCAADYDYPDYYAPSWPGYNYWGQGTQVTVSS | low polyreactivity
9 | QVQLVESGGGLVQAGGSLRLSCAASGSTSTRNAMGWYRPAPGKERELVAAITSGGNTYYADSVKGRFTISRDNAKNTVYLQMNSLKPEDTAVYYCAAASPGPWRYDYWGQGTQVTVSS | high polyreactivity
10 | QVHLVESGGGLVQAGGSLRLSCAASGFTFGIYAMGWYRQAPGKERELVAAIRKGGGSTYYADSVKGRFTISRDNAKNTVYLQMNSLKPEDTAVYYCAADSYRDWHDYWGQGTQVTVSS | low polyreactivity
11 | QVQLVESGGGLVQAGGSLRLSCAASGLTFQSYDMGWYRQAPGKERELVAAISRRGGSTYYADSVKGRFTISRDNAKNTVYLQMNSLKPEDTAVYYCAAEYRSWSWRMDYWGQGTQVTVSS | high polyreactivity
12 | QVQLVESGGGLVQAGGSLRLSCAASGSTFGDYAMGWSRQAPGKERELVAAISRGGSTYYADSVKGRFTISRDNEKNTVYLQMNSLKPEDTAVYYCNKDEGYSASPDGSTFDYWGQGTQVTVSS | low polyreactivity
13 | QVQLVESGGGLVQAGGSLRLSCAASGIIFDVYAMGWYRQAPGKERELVAAISKRGGRTYYADSVKGRFTISRDNAKNTVYLQMNSLKPEDTAVYYCAADGQYKHFDYWGQGTQVTVSS | high polyreactivity
14 | QVQLVESGGGLVQAGGSLRLSCAASGRTFQTNVMGWYRQAPGKERELVAAISKTGGRTYYADSVKGRFTISRDNAKNTVYLQMNSLKPEDTAVYYCAADSSGYEDYDYWGQGTQVTVSS | high polyreactivity
15 | QVQLVESGGCLVQAGGSLRLSCAASGRTFSRNAMGWYRQAPGKERELVAAISQRGVYTYYADSVKGRFTISRDNAKNTVYLQMNRLKPEDSAVYYCNTRGTYRYDYWGQGTQVTVSS | low polyreactivity
16 | QVQLVESGGGLVQAGGSLRLSCAASGGTFLVNAMGWYRQAPGKERELVATITARVGSTYYADSVKGRFTISRDNAKNTVYLQMNSLKPEDTADYYCAAYPQLWYWDYNYWGQGTQVTVSS | high polyreactivity
17 | QVQLVESVGGLVQAGGSLRLSCAASGRTFSEYAMGWYRQAPGEERELVAAITSTGGITYYADSVKGRFTISRDNAKNTVYLQMNSLKPEDTAVYYCAARAYTWGPAGQVDKYYYWGQGTQVTVSS | high polyreactivity
18 | QVQLQESGGGLVQAGGSLRQSCTASGTIYYTSAMGWYRHAPGKDREFVAAIASGSSTNYADSVKGRFTISRDNAKNTVYLKMNSLKPEVTAVYYCAASERVRNIYQYWGQGTQVSVSS | high polyreactivity
19 | QVQLVESGGGLVQAGGSLRLSCAASGRTSVRNAMGWYRQAPGKERELVAAISRRGTRTYYADSVKGRFTISRDNAKNTVYLQMNSLKPEDTAVYYCAASNGYQAVTYDYWGQGTQVTVSS | high polyreactivity
20 | QVQLVESRGGLVQAGGSLRLSCAASGFTFERYTMGWYRQAPGKERELVAGINYSGGSTYYADSVKGRFTISRDNAKNTVYLQMNSLKPEDTAVYYCAKDFPYSRYRRRYYYWGQGTQVTVSS | high polyreactivity
21 | QVQLVESGGGLVQAGGSLRLSCAASGRTYRAYTMGWYRQAPGKERELVAAISTPGGSTYYADSVKGRFTISRDNAKKTVYLQMIILKPEDNAVYYCAAGTFYYWLSYDYWGQGTKVTVSS | low polyreactivity
22 | QVQLVETGGGLVQAGGSLRLSCAASGSTFWYYGMGWYRQAPGKERELVAAISRRGGSTYYADSVKGRFTFSRDNAKNTVYLQMNSLKPEDTAVYYCAADRLIGDGENYYWGQGTQVTVSS | high polyreactivity

Row | Sequence | polyreactivity (PSR sort gate)
23 | QVQLVESGGGLVQAGGSLRLSCAASGSIFVPNAMGWYRQAPGKERELVAAITSGGSTYYADSVKGRFTISRDNAKNTVYLQMNSLKPEDTAVYYCAAEYWLGLYTYDYWGQGTQVTVSS | high polyreactivity
24 | QVQLVESGGGLVQAGGSLRLSCAASGRTITYYAMGWYRQAPGKERELVAAITWSGGSTYYADSVKGRFTISRDNAKNTVYLQMNSLKPEDTAVDYCAKEFYYSSGFDYWGQGTQVTVSS | low polyreactivity
25 | QVQLVESGGGLVQAGGSLRLSCAASGFTFRLYAMGWYRQAPGKERELVAAISWGGGSTYYADSVKGRFTISRDNAKNTLYLQMNSLKPEDTAVYYCAAYKYGYRYYYWGQGTLVTVSS | high polyreactivity
26 | QVQLVESGGGLVQAGGSLRLSCAASGFIFYYYTMGWYRPAPGKERELVAAISRGGGSTYYADSVKGRFTISRDNAKNTVYLQMNSLKPEDTAVYYCALTDRRLGAHQGDYWGQGTQVTVSS | high polyreactivity
27 | QVQLVESGGGLLQAGGSLRLSCAASGRIFGGYDMGWYRQAPGKERELVASISYSGGTTYYADSVKGRFTISRDNAKNTVYLQMNSLKPEDSAVYYCAALSQHNDSGYDYWGQGTQVTVSS | high polyreactivity
28 | QVQLVESGGGLVQAGGSLRLSCAASGFTIAVYVMGWYRQAPGNERELVATISFSVGSTYYADSVKGRFTISRDNAKNTVYLLMNCLKPEVTAVYYCNADPPPEYYPDKDNSWGQGTQVTVSS | low polyreactivity
29 | QVQLVESGAGLVQAGGRLRLSCGASGRIFGRNAMGLYRQGPGKERELVAAISYSGGSTYYADSVKGRFTISRDNAKNTVYLQMNSLKPEDTAVYYCAARYTRSGYYWGQGTQVTVSS | high polyreactivity
30 | QVQLVESGGGLVQAGGSLRLSCAASGFTFYPNTMGWYRQAPGKERELVAAISSSGGRTYYSDSVKGRFTISRDNAKNTVYLQMNSLKPEDTAVYYCNAAKWLTSGGLDYWGIGTQVTVSS | high polyreactivity
31 | QVQLVESGGGLVQAGGSLRLSCAASGSIFIWYAMGWSRQAPGKEREFVAAITYTGTSTYYADSVKGRFTISRDNAKNTVYLQMNSLKPEDTAVYYCAADKSTHPFPSDPGYGYWGQGTQVTVSS | low polyreactivity
32 | QVQLVESGGVLVQAGGSLRLSCAASGSTFGANAMGWNREAPGKEREFVAAISGSGTTTYYADSVKGRFTISRDNAKNSVYLHLNSLKQEDTAVYYCAKTRKAHWLEYWGQGTKVTVSS | low polyreactivity
33 | QVQLVDSGGGLVQAGGSLRLSCAASGRIFPYYDMGWYRQAPGKERELVAAITWNGGSTYYADSVKGRFTISRDNAKNTVYLQMNSLKPEDTAVYYWAVEPYYYGEDYWGQGTQVTVSS | low polyreactivity
34 | QVQLVESGGGLVQAGGSLRLSCAASGSTFVWNAMGWYRQAPGKERELVATITLSTGSTYYADSVKGRFTISRDNAKNTVYLQMNSLKPEDTAVYYCNTEIYVDIISDYGYWGQGTQVTVSS | low polyreactivity
35 | QVQLVESGGGLVQAGGSLRLSCAASGFTFFSNAMGWYREAPGQERELVASITNDGSTYADSVKGRFTISRDNAKNTVYLQMNSLKPEDTAVYYCAARFPQWRYSRRTCERFDYWGQGTQVTVSS | low polyreactivity
36 | QVQLVESGGGLVQAGGSLRLSCAASGFIFTYYAMGWFRQAPGKERELVAVISWSGGTTYYADSVKGRFTISRDNAKNTVYLQMNSLKPEDTAVFYCNARSLAKLPRSSVRVEYDYWGQGTQVTLSS | low polyreactivity
37 | QVQLVESGGGLVQAGGSLRLSCAASGSTFKAYAMGWYRQAPGKEREFVAAITRSGGRTYYADSVKGRFTISRDNAKNTVYLQMNSLKPEDTAVYYCAAYTWYAWVSDPTNEYWGQGTQVTVSS | low polyreactivity
38 | QVQLVESGGGLVQAGGSLRLSCAASGFIFERYTMGWYRHAPGKERELVAAISDSGGSTYYADSVKGRFTISRDNAKNTVYLQMNSLKPEDTAVYYCAAKFRNYRPSKYYYWGQGTQVTVSS | high polyreactivity
39 | QVQLVESGGGLVQARGSLRLSCAGSGSTLPSYAMGWYRQAPGKERELVAAISSSGGRTYYADSVKGRFTISRDNAKNTVYLLMNSLKPEDTAVYYCAALSVANYHGTDSGYWGQGTQVTVSS | high polyreactivity
40 | QVQRVESGGGLVQAGGSLRLSCAASGFTFVEYAMGWYRQAPGKERELVAAISVSGGSTYYADSVKGRFTISRDNAKNTVYLQMNSLKPEDTAVYYCNATGYQVGSITIYDYWGQGSQVTVSS | low polyreactivity
41 | QVQLVESGGGLVQAGGSLRLSCAASGGTFLYYMGWYRQAPGKEMELVAAITFSGGSTYYADSVKGRFTISRDNAKNTVYLQMNSLKPEDTAVYYCAAGWYDWPKYLLSVYTYYLYDSWGQGTQVTVSS | low polyreactivity
42 | QVQLVESGGGLVQAGGSLRLSCAASGSTFYTYAMGWYRQAPGKERELVAAISWSGGSTYYADSVKGRFTISRDIAKNTVYLQMNSLKPEDTAVYYCAKKQVTTDVSSETFVLEMDYWGQGTQVTVSS | low polyreactivity
43 | QVQLVESGGGLVQAGGSLRLSCAASGRTFIFYAMGWYRQAPGKERELVAAITYSGTSTYYADSVKGRFTISRDNAKNTVYLQMNSLKPEDTAVYYCAKDGQRDANYYWGQGTQVTVSS | low polyreactivity
